Data published in US20140112919A1.

Tests used:
[1] = biological target: rat anti hIL-10 mAb 12G8; assay: competitive ECLA (IGEN): unlabeled IL-10 titrated against hIL-10-biotin for binding to rat 12G8
[2] = biological target: recombinant human IL-10 (human) (UniProt P22301); assay: KinExA, mean (n)
[3] = biological target: recombinant cyno IL-10 (cyno) (UniProt P79338); assay: Biacore, mean ± S.D. (n); format not described
[4] = biological target: recombinant human IL-10 (human) (UniProt P22301); assay: Biacore, mean ± S.D. (n); format not described
[5] = biological target: T1, recombinant mouse IL-10 (mouse) (UniProt P18893); assay: Biacore, mean ± S.D. (n); format not described
T1 sequence: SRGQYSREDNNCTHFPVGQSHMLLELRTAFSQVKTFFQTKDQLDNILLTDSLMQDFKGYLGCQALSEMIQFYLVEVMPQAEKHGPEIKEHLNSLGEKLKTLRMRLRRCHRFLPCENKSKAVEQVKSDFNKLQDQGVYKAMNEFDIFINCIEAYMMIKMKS

[6] = biological target: recombinant human IL-10 (human) (UniProt P22301)

recombinant cyno IL-10 (cyno), sequence (P79338 19-178 limits assumed): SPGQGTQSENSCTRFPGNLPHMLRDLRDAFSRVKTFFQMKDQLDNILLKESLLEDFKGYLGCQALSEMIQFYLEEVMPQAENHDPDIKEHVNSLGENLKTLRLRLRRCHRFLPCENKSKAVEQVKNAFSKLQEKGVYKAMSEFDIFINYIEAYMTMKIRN

B1: recombinant mouse IL-10 (ligand)
chain: SRGQYSREDNNCTHFPVGQSHMLLELRTAFSQVKTFFQTKDQLDNILLTDSLMQDFKGYLGCQALSEMIQFYLVEVMPQAEKHGPEIKEHLNSLGEKLKTLRMRLRRCHRFLPCENKSKAVEQVKSDFNKLQDQGVYKAMNEFDIFINCIEAYMMIKMKS
[1]
  IC50: 37.9 nM

B2: rat anti hIL-10 mAb 12G8 (antibody, from a related filing, V domains shown)
VH: EVQLVESGGGLVRPGGSLRLSCTASGFTFSDYHMAWVRQSPDKGLEWVASITLDATYTYYRDSVRGRFTISRNNAKTTLYLQMDSLRSEDTATFYCTRHRGFSVWLDYWGQGVMVTVSS
VL: DIQMTQSPSLLSASVGDRVTLNCKTSQNIFENLAWYQQKLREPPKLLIFNASPLQAGIPSRFSGSGSGTDFTLTITSLQPEDVATYFCHQYYSGYTFGPGTKLELKR
[2]
  Kd: 0.023 nM
[3]
  Kd: 0.33 nM
[4]
  Kd: 0.277 nM
[5]
  Kd: 7.4 nM
[6]
  Bioassay IC50(pM): 66 pM

B3: humanized anti-human IL-10 antibody SCH 708980 (12G8) (antibody, V domains shown)
VH: QVQLVESGGGVVQPGRSLRLSCAASGFTFSDYHMAWVRQAPGKGLEWVASITLDATYTYYRDSVRGRFTISRDNSKNTLYLQMNSLRAEDTAVYYCARHRGFSVWLDYWGQGTLVTVSS
VL: DIQMTQSPSSLSASVGDRVTITCKTSQNIFENLAWYQQKPGKAPKLLIYNASPLQAGVPSRFSGSGSGTDFTLTISSLQPEDFATYYCHQYYSGYTFGPGTKLELKR
[6]
  Bioassay IC50(pM): 93 pM
